These results are taken from patent publication US20100197581A1 (TIBOTEC PHARMACEUTICALS, published 2010).

This assay addresses sCD4 induced HIV-1 IIIB Env complexes (gp120/gp41 native spikes) on HUTIIIB cells (clone 199-76) (HIV-1 IIIB; human, UniProt P04578 33-856; P01730 26-396).

B1: F105 (antibody, V domains shown)
VH: QVQLQESGPGLVKPSETLSLTCTVSGGSISSHYWSWIRQSPGKGLQWIGYIYYSGSTNYSPSLKSRVTISVETSKNQFSLKLTSMTAADTAVYYCARGPVPAVFYGDYRLDPWGQGTLVTVSS
VL: EIVLTQSPGTLSLSAGERATLSCRASQSVSSRYLAWYQQKPGQAPRLLIYGASSRATGIPDRFSGSGSGTDFTLTISRVEPEDFAVYYCQQYDNSVCTFGQGTKLEIK
As to B1, the EC50 was over 100 nM.
